This is an account of results in PMC3821912.

This assay concerns the target areca nut (AN) peroxidase (Areca catechu L.). The experiment in a line: native gel or EMSA; native gel without heating or reducing agent; zymogram (20 mM guaiacol, 5 mM H2O2) and Coomassie staining; enzyme desalted with HEPES buffer (20 mM, pH 7.9); dimer to monomers. (Mobility shift assays separate free from complexed probe on a gel.)

As a reminder, the stoichiometry N is the number of molecules, sites or subunits per partner or assembly. For the substance areca nut (AN) peroxidase (enzyme), the stoichiometry N came to 2.
